Source: patent US20200308301A1 (Novartis, published 2020)
Changes are numbered by the printed parent chain.

B1: IDT11 (antibody, human IgG1, kappa, V domains shown)
VH: QVQLLESGGGLVQPGGSLRLSCAASGFTFSDYAMSWVRQAPGKGLEWVSVIDYSSSNTYYADSVKGRFTISRDNSKNTLYLQMNSLRAEDTAVYYCAREGYSYRSIRFDYWGQGTLVTVSS
VL: DIQMTQSPSSLSASVGDRVTITCRASQSISSNLNWYQQKPGKAPKLLIYAASNLQSGVPSRFSGSGSGTDFTLTISSLQPEDFATYYCLQFDHTPFTFGQGTKVEIKR
notes: also called anti-NOV1401 IgG IDT11; full length IgG format for IDT1
B2: IDT1 (Fab, V domains shown)
VH: B1 VH
VL: B1 VL
notes: Fab (heavy chain is VH-CH1); also called anti-NOV1401 Fab IDT1
B3: NOV1401 (antibody, human IgG1, lambda, V domains shown)
VH: QVQLLESGGGLVQPGGSLRLSCAASGFTFSTAAMSWVRQAPGKGLEWVSGISGSGSSTYYADSVKGRFTISRDNSKNTLYLQMNSLRAEDTAVYYCARELSYLYSGYYFDYWGQGTLVTVSS
VL: QSVLTQPPSASGTPGQRVTISCSGSSSNIGSNDVSWYQQLPGTAPKLLIYKNYNRPSGVPDRFSGSKSGTSASLAISGLQSEDEADYYCSAWDQRQFDVVFGGGTKLTVLG
notes: It was amine-coupled to the chip in SPR, and used soluble and biotinylated in SET; also called anti-FXI/FXIa antibody NOV1401; anti-Factor XI/FXIa antibody NOV1401
B4: IDT3 (Fab, V domains shown)
VH: QVQLVESGGGLVKPGGSLRLSCAASGFTFQSAAVHWVRQAPGKGLEWVGRIKSKADGGTTDYAAPVKGRFTISRDDSKNTLYLQMNSLKTEDTAVYYCARDSPSISSYSIPYFSGMDVWGQGTLVTVSS
VL: DIQMTQSPSSLSASVGDRVTITCRASQGIRAWLNWYQQKPGKAPKLLIYAASSLQSGVPSRFSGSGSGTDFTLTISSLQPEDFATYYCHQYITHPPTFGQGTKVEIKR
notes: Fab; also called anti-NOV1401 Fab IDT3
B5: IDT12 (antibody, human IgG1, kappa, V domains shown)
VH: B4 VH with Q30S
VL: B4 VL
notes: also called anti-NOV1401 IgG IDT12; full length IgG format for IDT2

Assays:
NOV1401 [1] = target: B3; test: cell-based or functional assay
NOV1401 [2] = target: B3; test: Solution equilibrium titration (SET), IgG, 1:1 fit, average
Procedure: (§1) 14 serial (2×) dilutions of NOV1401 were prepared in sample buffer (PBS pH 7.4 containing 0.5% (w/v) BSA and 0.02% Tween 20) and a constant concentration of the anti-NOV1401 Fab or IgG was added to each NOV1401 concentration ranging from 40 pM to 240 pM. Optimal constant anti-NOV1401 Fab or IgG concentrations and optimal starting concentrations for NOV1401 dilution series were determined in pilot experiments.
(§2) After incubation and three times washing with PBST (PBS containing 0.05% Tween 20) 30 μl/well of the NOV1401/anti-NOV1401 Fab or IgG preparation was transferred from the polypropylene MTP to the NOV1401-coated SA plate and incubated for 30 min at RT on a MTP shaker. After three additional wash steps, 30 μl of 0.5 μg/ml detection antibody (Goat anti-human Kappa LC-HRP, BETHYL # A80-115P) diluted in sample buffer was added to each well and incubated for 1 h at RT with shaking. […] Electrochemiluminescence (ECL) signals were generated and detected immediately with a luminescence imager (SpectraMax M5, Molecular Devices, LLC).
Average ECL-signals were calculated from duplicate measurements within each assay. […] KD values were determined by fitting the plot with the following non-linear curve fitting model for 1:1 binding according to Haenel et al 2005: […]

NOV1401 [3] = target: B3; test: cell-based or functional assay; remark: listed apart in the source
[4] = target: T1, Human plasma-derived FXIa (human, UniProt P03951 19-625); test: SPR, FXIa immobilized on GLC chip
T1 construct: also called Factor XIa
Procedure: SPR experiments were performed in principle as described in Example 2 with the following changes. Human plasma-derived FXIa was used as ligand and immobilized on an activated ProteOn GLC sensor chip (Bio-Rad Laboratories, Inc.) using standard amine coupling procedures as described and by injecting FXIa at a concentration of 10 μg/ml in 20 mM sodium acetate, pH 5.0 and at a flow rate of 30 μl/min for 10 min.
For binding competition studies NOV1401 and three mixture of NOV1401 with anti-NOV1401 Fab at molar ratios of 1:1, 1:2, and 1:10 were prepared in PBS/T buffer and injected in simultaneously onto surfaces with immobilized FXI at a flow rate of 100 μL/min. Sensorgrams were recorded for association and dissociation times of 220 s and 1800 s, respectively. Blank surfaces were used for background corrections.

NOV1401 [5] = target: B3; test: Solution equilibrium titration (SET), 1:1 fit, average
Procedure: as §1
After incubation and three times washing with PBST (PBS containing 0.05% Tween 20) 30 μl/well of the NOV1401/anti-NOV1401 Fab or IgG preparation was transferred from the polypropylene MTP to the NOV1401-coated SA plate and incubated for 30 min at RT on a MTP shaker. After three additional wash steps, 30 μl of 0.5 μg/ml detection antibody (Goat anti-human Kappa LC-HRP, BETHYL # A80-115P) diluted in sample buffer was added to each well and incubated for 1 h at RT with shaking. After washing the plate again three times, 30 μl of detection reagent (LumiGLO Peroxidase Chemiluminescent Substrate, KPL #54-61-01) was added to each well. Electrochemiluminescence (ECL) signals were generated and detected immediately with a luminescence imager (SpectraMax M5, Molecular Devices, LLC).
Average ECL-signals were calculated from duplicate measurements within each assay. Data were baseline adjusted by subtracting the lowest value from all data points and plotted against the corresponding antigen concentration. KD values were determined by fitting the plot with the following non-linear curve fitting model for 1:1 binding according to Haenel et al 2005: […]

NOV1401 [6] = target: B3; test: SPR (ProteOn XPR36), NOV1401 immobilized, Fab as analyte, 1:1 Langmuir fit, average
Procedure: SPR binding experiments were performed on a ProteOn XPR36 instrument (Bio-Rad Laboratories, Inc.) in PBS/T buffer (50 mM phosphate, 150 mM NaCl, pH 7.4, 0.005% v/v Tween-20) at 25° C. NOV1401 (‘Ligand’) was immobilized onto an activated ProteOn GLC sensor chip (Bio-Rad Laboratories, Inc.) using standard amine coupling procedures as described by the manufacturer. Briefly, NOV1401 was injected at a concentration of 10 μg/ml in 20 mM sodium acetate, pH 5.0 and at a flow rate of 30 μl/min for 10 min. Unreacted groups were blocked by injecting 1 M ethanolamine.
For kinetic studies anti-NOV1401 Fabs (‘Analytes’) were diluted in PBS/T buffer to generate a dilution series with concentrations ranging from 0.125-4 nM. Fabs were injected onto surfaces with immobilized NOV1401 at a flow rate of 100 μL/min and sensorgrams were recorded for association and dissociation times of 220 s and 1800 s, respectively. Blank surfaces were used for background corrections. There was no need to regenerate surfaces since the ProteOn protein interaction array system allows to run up to six binding experiments on an identical surface in parallel.
Data processing and analysis including kon, koff, and KD determination were performed with the ProteOn Manager™ software version 3.1.0.6.

IDT4 = target: T2, IDT4; test: SET: soluble NOV1401 titrated against constant IDT4 Fab; competitor is plate-bound biotinylated NOV1401; free Fab read as RLU
T2 construct: Fab; also called anti-NOV1401 Fab IDT4
Procedure: as §1
(§3) 30 µl/well of each dilution mix was distributed in duplicates to a 384-well polypropylene Eppendorf microplate (MTP). Sample buffer served as negative control and a sample containing no antigen as positive control (Bmax). The plate was sealed and incubated overnight at RT on a plate shaker.
as §2

IDT9 = target: T3, IDT9; test: SET: soluble NOV1401 titrated against constant IDT9 Fab; competitor is plate-bound biotinylated NOV1401; free Fab read as RLU
T3 construct: Fab; also called anti-NOV1401 Fab IDT9
Procedure: as §1, §3, §2

IDT5 = target: T4, IDT5; test: SET: soluble NOV1401 titrated against constant IDT5 Fab; competitor is plate-bound biotinylated NOV1401; free Fab read as RLU
T4 construct: Fab; also called anti-NOV1401 Fab IDT5
Procedure: as §1, §3, §2

IDT10 = target: T5, IDT10; test: SET: soluble NOV1401 titrated against constant IDT10 Fab; competitor is plate-bound biotinylated NOV1401; free Fab read as RLU
T5 construct: Fab; also called anti-NOV1401 Fab IDT10
Procedure: as §1, §3, §2

IDT11 = target: B1; test: SET: soluble antigen (NOV1401 by the legend and Example 2, axis labelled MAA868) titrated against constant IDT11 IgG; competitor is plate-bound biotinylated NOV1401; free IgG read as RLU
Procedure: as §1, §3, §2

IDT12 = target: B5; test: SET: soluble antigen (NOV1401 by the legend and Example 2, axis labelled MAA868) titrated against constant IDT12 IgG; competitor is plate-bound biotinylated NOV1401; free IgG read as RLU
Procedure: as §1, §3, §2

IDT3 = target: B4; test: SET: soluble NOV1401 titrated against constant IDT3 Fab; competitor is plate-bound biotinylated NOV1401; free Fab read as RLU
Procedure: as §1, §3, §2

IDT8 = target: T6, IDT8; test: SET: soluble NOV1401 titrated against constant IDT8 Fab; competitor is plate-bound biotinylated NOV1401; free Fab read as RLU
T6 construct: Fab; also called anti-NOV1401 Fab IDT8
Procedure: as §1, §3, §2

[7] = target: Human FXI in normal human plasma (human, UniProt P03951 19-625); test: cell-based or functional assay
IDT7 = target: T7, IDT7; test: SET: soluble NOV1401 titrated against constant IDT7 Fab; competitor is plate-bound biotinylated NOV1401; free Fab read as RLU
T7 construct: Fab; also called anti-NOV1401 Fab IDT7
Procedure: as §1, §3, §2

B1
TGA percentage reversal, NOV1401/anti NOV1401 ratio 1/1 (n/n) (NOV1401 [1]): 50% | TGA percentage reversal, NOV1401/anti NOV1401 ratio 1/3 (n/n) (NOV1401 [1]): 59% | TGA percentage reversal, NOV1401/anti NOV1401 ratio 1/10 (n/n) (NOV1401 [1]): 67% | Kd (NOV1401 [2]): 0.0007 nM | aPTT percentage reversal, NOV1401/anti NOV1401 ratio 1/1 (n/n) (NOV1401 [3]): 19% | aPTT percentage reversal, NOV1401/anti NOV1401 ratio 1/3 (n/n) (NOV1401 [3]): 55% | aPTT percentage reversal, NOV1401/anti NOV1401 ratio 1/10 (n/n) (NOV1401 [3]): 57%

B2
binding result [4]: no binding | Kd (NOV1401 [5]): 0.11 nM | Kd (NOV1401 [6]): 0.44 nM | TGA percentage reversal, NOV1401/anti NOV1401 ratio 1/1 (n/n) (NOV1401 [1]): 49% | TGA percentage reversal, NOV1401/anti NOV1401 ratio 1/3 (n/n) (NOV1401 [1]): 55% | TGA percentage reversal, NOV1401/anti NOV1401 ratio 1/10 (n/n) (NOV1401 [1]): 55% | aPTT percentage reversal, NOV1401/anti NOV1401 ratio 1/1 (n/n) (NOV1401 [3]): 12% | aPTT percentage reversal, NOV1401/anti NOV1401 ratio 1/3 (n/n) (NOV1401 [3]): 45% | aPTT percentage reversal, NOV1401/anti NOV1401 ratio 1/10 (n/n) (NOV1401 [3]): 64%

B3
binding result (IDT4): binds | binding result (IDT9): binds | binding result (IDT5): binds | binding result (IDT10): binds | IC50 (read off the curve) (IDT11): ~0.008 nM | IC50 (read off the curve) (IDT12): ~0.01 nM | binding result (IDT3): binds | binding result (IDT8): binds | TGA in human plasma: IC50 of NOV1401 for reduction of peak thrombin [7]: 50 nM | binding result (IDT7): binds

B4
binding result [4]: no binding | Kd (NOV1401 [5]): 0.1 nM | Kd (NOV1401 [6]): 0.24 nM | TGA percentage reversal, NOV1401/anti NOV1401 ratio 1/1 (n/n) (NOV1401 [1]): 31% | TGA percentage reversal, NOV1401/anti NOV1401 ratio 1/3 (n/n) (NOV1401 [1]): 47% | TGA percentage reversal, NOV1401/anti NOV1401 ratio 1/10 (n/n) (NOV1401 [1]): 67% | aPTT percentage reversal, NOV1401/anti NOV1401 ratio 1/1 (n/n) (NOV1401 [3]): 9% | aPTT percentage reversal, NOV1401/anti NOV1401 ratio 1/3 (n/n) (NOV1401 [3]): 35% | aPTT percentage reversal, NOV1401/anti NOV1401 ratio 1/10 (n/n) (NOV1401 [3]): 58%

B5
TGA percentage reversal, NOV1401/anti NOV1401 ratio 1/1 (n/n) (NOV1401 [1]): 60% | TGA percentage reversal, NOV1401/anti NOV1401 ratio 1/3 (n/n) (NOV1401 [1]): 64% | TGA percentage reversal, NOV1401/anti NOV1401 ratio 1/10 (n/n) (NOV1401 [1]): 62% | Kd (NOV1401 [2]): 0.0051 nM | aPTT percentage reversal, NOV1401/anti NOV1401 ratio 1/1 (n/n) (NOV1401 [3]): 9% | aPTT percentage reversal, NOV1401/anti NOV1401 ratio 1/3 (n/n) (NOV1401 [3]): 51% | aPTT percentage reversal, NOV1401/anti NOV1401 ratio 1/10 (n/n) (NOV1401 [3]): 61%
